Measurements published in the supplement of paper PMC9170038.

System: MS2 coat protein
Assay: apparent KD of MS2 coat protein; designed switch direction (-1 OFF switch, 1 ON switch): -1; higher = weaker reporter binding
In short: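 Designed RNA switches sharing common flanks were transcribed on Illumina chips by stalled E. coli RNA polymerase. They were titrated with SNAP-549-labelled MS2 coat protein, from 0.7 or 1.5 nM doubling to 3 µM, in Tris-HCl pH 7.5 buffer with KCl, MgCl2, BSA, DTT, tRNA and Tween-20. Titrations ran without input, with 200 uM small-molecule ligand, or with an oligonucleotide input. The apparent KD of each design is the median over its clusters, after curve-fitting of normalised cluster fluorescence.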

[1] = input ligand: microRNA oligo, concentration not stated
[2] = Eterna round: R95, input ligand: microRNA oligo, concentration not stated
[3] = Eterna round: R95, input ligand: FMN 200 uM
[4] = Eterna round: R95, input ligand: none

Sequence: CUGUUUUUCGCAGGAUAUGCUCCUCCAUUAUUUGCAGAAGGGCGUUAAACAUGAGGAUCACCCAUGUAUGGUAAUGACUAUUGC [JR_ExcNG1_Sub066] (Eterna round: R96, puzzle: Exclusion NG 1)
- apparent KD of MS2 coat protein (input ligand: FMN 200 uM): 27.4 nM
- apparent KD of MS2 coat protein [1]: 12.6 nM
- apparent KD of MS2 coat protein (input ligand: none): 19.6 nM

Sequence: CUGUUUUUCGCAGGAUAUGCUCCUCCAUUAUUUGCAGAAGGGCGUUGAACAUGAGGAUCACCCAUGUAUGGUAAUGACUAUUGC [JR_ExcNG1_Sub067] (Eterna round: R96, puzzle: Exclusion NG 1)
- apparent KD of MS2 coat protein (input ligand: FMN 200 uM): 23.5 nM
- apparent KD of MS2 coat protein [1]: 14.7 nM
- apparent KD of MS2 coat protein (input ligand: none): 22.4 nM

Sequence: CUUAAACAUGAGGAUCACCCAUGUCAGGAUAUGAUACUAUGUACUUCGGUACAUAGUAUCAGAAGGGAUAUGAA [Ex1-3: 64] (puzzle: Exclusion 1)
- apparent KD of MS2 coat protein [2]: 43.1 nM

Sequence: CUUAAUUGUCACAUGGGUGACAUGAGGAUCACCCAUGUCACAAGCUUUUUGCUCGUCUUAUAAUUAACCCAUGUGAC [Stov1/12-A3] (Eterna round: R97, puzzle: Sensor, turn-off variant 1)
- apparent KD of MS2 coat protein (input ligand: FMN 200 uM): 13.7 nM
- apparent KD of MS2 coat protein (input ligand: none): 13.3 nM

Sequence: CUUAAUUGUCAGAUGGGUGACAUGAGGAUCACCCAUGUCACAAGCUUUUUGCUCGUCUUAUAAUUAACCCAUCUGAC [Stov1/11-A4] (Eterna round: R97, puzzle: Sensor, turn-off variant 1)
- apparent KD of MS2 coat protein (input ligand: FMN 200 uM): 13.5 nM
- apparent KD of MS2 coat protein (input ligand: none): 13.4 nM

Sequence: CUUAGACAUGAGGAUCACCCAUGUGAGGAUAUGAAAUUAAUUAAUUAUGAAGUAUGAAUCAGAAGGCACAUAUG [Mat - Mod of Hyphema D35] (puzzle: Exclusion 1)
- apparent KD of MS2 coat protein [3]: 71.7 nM
- apparent KD of MS2 coat protein [2]: 78.6 nM
- apparent KD of MS2 coat protein [4]: 118 nM

Sequence: CUUAGACAUGAGGAUCACCCAUGUGAGGAUAUGAUGCGAAUAAAGAAAGAAGAAAGCAUCAGAAGGCACAUAUG (Eterna round: R96, puzzle: Exclusion 1)
- apparent KD of MS2 coat protein (input ligand: FMN 200 uM): 382 nM
- apparent KD of MS2 coat protein [1]: 94.1 nM
- apparent KD of MS2 coat protein (input ligand: none): 125 nM

Sequence: CUUAGACAUGAGGAUCACCCAUGUGAGGAUAUGAUGCGAAUAAAGAAAGAAGAAAGCAUCAGAAGGCACAUAUG [Fiskers Ex 1 - 1] (puzzle: Exclusion 1)
- apparent KD of MS2 coat protein [3]: 111 nM
- apparent KD of MS2 coat protein [2]: 121 nM
- apparent KD of MS2 coat protein [4]: 97.9 nM

Sequence: CUUAGACAUGAGGAUCACCCAUGUGAGGAUAUGAUGCGAUCGUCGAAAGACGAUAGCAUCAGAAGGCACAUAUG [Fiskers Ex 1 - 6] (puzzle: Exclusion 1)
- apparent KD of MS2 coat protein [2]: 132 nM

Sequence: CUUAGCCUAAAAUCACGCAAGCUUUUUGCUUGUCUUAAGACAUGAGGAUCACCCAUGUCCGGGCUGAACUUAUGGAA [Zarebe] (puzzle: Sensor v3, turn-off variant 2)
- apparent KD of MS2 coat protein [3]: 17.5 nM
- apparent KD of MS2 coat protein [2]: 20.4 nM
- apparent KD of MS2 coat protein [4]: 17.1 nM

Sequence: CUUAGUUGGUAAGGAUAUCCUACAUUGUUCUGGCCCGGGCAUGCUACAUGAGGAUCACCCAUGUGGGAGAAGGUGCGUCAUCGC [Design 18] (Eterna round: R96, puzzle: Exclusion NG 2)
- apparent KD of MS2 coat protein (input ligand: FMN 200 uM): 57.4 nM
- apparent KD of MS2 coat protein [1]: 45.1 nM
- apparent KD of MS2 coat protein (input ligand: none): 53.6 nM

Sequence: CUUCACGGAGGAUAUGCGGGCUGCGACAUGAGGAUCACCCAUGUUUAUGGAGCUUGGCAUGCAGAAGGCCGGGAGC [Eternabot (L2) Solution 19] (Eterna round: R97, puzzle: Exclusion 5)
- apparent KD of MS2 coat protein (input ligand: FMN 200 uM): 9.81 nM
- apparent KD of MS2 coat protein (input ligand: none): 10.6 nM

Sequence: CUUCGACAUGAGGAUCACCCAUGUCAGGAUAUUGUGUAUCGGGUUUUUUACGGUAAGGCAAGAAGGGAUGUGUG [LRO-Excl1-08] (puzzle: Exclusion 1)
- apparent KD of MS2 coat protein [2]: 29.9 nM

Sequence: CUUCGUAUAGAGGAUAUAGGUUACUGCGGUAUCCUAGAAGGCUGUACAUGAGGAUCACCCAUGUACUUCAGAUC [Exclusion 6 - B - 13:c] (puzzle: Exclusion 6)
- apparent KD of MS2 coat protein [2]: 12.6 nM

Sequence: CUUGUUUAUGUAGGAUAUGCCUGGCGUGCCUUUGCAGAAGGACAUGAGGAUCACCCAUGUAACAUGAGGCUCCACCUUGUCGCC [salish99_ExNG1_r04_117] (Eterna round: R96, puzzle: Exclusion NG 1)
- apparent KD of MS2 coat protein [1]: 111 nM

Sequence: CUUGUUUAUGUGAGGAUAUACUGUUAGUAAUGUUUGUAGAAGGUACAUGAGGAUCACCCAUGUUUAUUUAUAUU [JR_BME4_Sub043] (puzzle: Brourd's mod of Exclusion 4)
- apparent KD of MS2 coat protein [2]: 18.1 nM

Sequence: CUUUAGCUAGGAUAUACAUGAGGAUCACCCAUGUUAGCGGUCAAUUGGGCCGCGGGUUGUAGAAGGAGCAUUAA [Aniscerile] (puzzle: Exclusion 3)
- apparent KD of MS2 coat protein [2]: 28.6 nM

Sequence: CUUUAGUGAGGAUAUCAGUAGUAAUACAAUAGUAUUACUACUGAGAAGGCACAUGAGGAUCACCCAUGUUUCUC [Mat - Exclusion 4 - Mod of Omei - D78] (puzzle: Exclusion 4)
- apparent KD of MS2 coat protein [2]: 28 nM

Sequence: CUUUAGUGAGGAUAUCAGUGGUAAUACAAUAGUAUUACUACUGAGAAGGCACAUGAGGAUCACCCAUGUUCCUC [Mat - Exclusion 4 - Mod of Omei - D84] (puzzle: Exclusion 4)
- apparent KD of MS2 coat protein [2]: 26.4 nM

Sequence: CUUUCGUGAGGAUAUCAGUAGUAAAAUAAUAAAAUUACUACUGAGAAGGCACAUGAGGAUCACCCAUGUUCCUC [salish99_ex3_r3_099] (puzzle: Exclusion 4)
- apparent KD of MS2 coat protein [2]: 24.9 nM

Sequence: CUUUUGUGAGGAUAUCAGGUGUGCUAGCGUACUGGUACAUCUGAGAAGGCACAUGAGGAUCACCCAUGUUUCUA [Mat - Exclusion 4 - Mod of JL - D38] (puzzle: Exclusion 4)
- apparent KD of MS2 coat protein [2]: 64 nM

Sequence: CUUUUGUGAGGAUAUCAGUAGUAAAAAAAUAAAUUUACUACUGAGAAGGCACAUGAGGAUCACCCAUGUUCCUC [salish99_ex4_r3_025] (puzzle: Exclusion 4)
- apparent KD of MS2 coat protein [2]: 42.9 nM

Sequence: CUUUUGUGAGGAUAUCAGUAGUAAAAUAAUAAUAUUACUACUGAGAAGGCACAUGAGGAUCACCCAUGUUCCUC [Fiskers Ex 4 Super stable 44 mod 1] (puzzle: Exclusion 4)
- apparent KD of MS2 coat protein [2]: 39 nM

Sequence: CUUUUGUGAGGAUAUCAGUAGUAAAUAAAUUAAAUUACUACUGAGAAGGCACAUGAGGAUCACCCAUGUUCCUC [salish99_ex3_r3_081] (puzzle: Exclusion 4)
- apparent KD of MS2 coat protein [2]: 39.3 nM

Sequence: CUUUUGUGAGGAUAUCAGUAGUAAAUAUAUAAAAUUACUACUGAGAAGGCACAUGAGGAUCACCCAUGUUCCUC [salish99_ex3_r3_079] (puzzle: Exclusion 4)
- apparent KD of MS2 coat protein [2]: 38.8 nM

Sequence: CUUUUGUGAGGAUAUCAGUAGUAAUAAAAUAAAAUUACUACUGAGAAGGCACAUGAGGAUCACCCAUGUUCCUC [salish99_ex4_r3_018] (puzzle: Exclusion 4)
- apparent KD of MS2 coat protein [2]: 37.6 nM

Sequence: CUUUUGUGAGGAUAUCAGUAGUAAUACAAUAGUAUUACUACUGAGAAGGCACAUGAGGAUCACCCAUGUUCCUC [Ex4 344 Omei mod 0] (puzzle: Exclusion 4)
- apparent KD of MS2 coat protein [2]: 40.5 nM

Sequence: CUUUUGUGAGGAUAUCAGUGGUAAUACAAUAGUAUUACUACUGAGAAGGCACAUGAGGAUCACCCAUGUUCCUC [Ex4 344 Omei mod 11] (puzzle: Exclusion 4)
- apparent KD of MS2 coat protein [2]: 43.1 nM

Sequence: CUUUUGUGAGGAUAUUAGUAGUAUAUAAUUGGUGAUAUUGCUGAGAAGGCACAUGAGGAUCACCCAUGUACAAC [JR_Ex4_Sub034] (Eterna round: R97, puzzle: Exclusion 4)
- apparent KD of MS2 coat protein (input ligand: FMN 200 uM): 369 nM
- apparent KD of MS2 coat protein (input ligand: none): 441 nM

Sequence: CUUUUGUGAGGAUAUUAGUAGUUAAUAAAUAAAAUUACUACUGAGAAGGCACAUGAGGAUCACCCAUGUUCCUC [salish99_ex4_r3_051] (puzzle: Exclusion 4)
- apparent KD of MS2 coat protein [2]: 32.8 nM

Sequence: CUUUUGUGAGGAUAUUGGUAGUAAAUAAAUAAAAUUACUACUGAGAAGGCACAUGAGGAUCACCCAUGUUCCUC [salish99_ex4_r3_070] (puzzle: Exclusion 4)
- apparent KD of MS2 coat protein [2]: 30.7 nM

Sequence: GAAAACGAUGAGGAUAUAUGAUAUCAAAGCAUCAUAGAAGGCAUCACAUGAGGAUCACCCAUGUGAUCUUCUUG [Mat - Exclusion 6 - JL Mod - D31] (Eterna round: R97, puzzle: Exclusion 6)
- apparent KD of MS2 coat protein (input ligand: FMN 200 uM): 164 nM
- apparent KD of MS2 coat protein (input ligand: none): 26.6 nM

Sequence: GAAAACGCAGAGGAUAUUUCAGAUCAAAGCUGCAAAGAAGGCUGCACAUGAGGAUCACCCAUGUGGUCUUAAAA [Mod of Quesina 2 - Jieux - Exclusion 6] (Eterna round: R97, puzzle: Exclusion 6)
- apparent KD of MS2 coat protein (input ligand: FMN 200 uM): 337 nM
- apparent KD of MS2 coat protein (input ligand: none): 23.8 nM

Sequence: GAAAAGAAGCUAGGAUAUGCAUGACGGAUACCCGUGAGCACGUAGCAGACAUGAGGAUCACCCAUGUAGAAGGAGCGAAGAAAU [Veteriat] (Eterna round: R96, puzzle: Exclusion NG 2)
- apparent KD of MS2 coat protein (input ligand: FMN 200 uM): 251 nM
- apparent KD of MS2 coat protein [1]: 43.6 nM
- apparent KD of MS2 coat protein (input ligand: none): 52.8 nM

Sequence: GAAAAGCUAGGAUAUACAUGAGGAUCACCCAUGUAAGGUCGCUUCUUAUAUAGGGCAUGUAGAAGGAGCAAAGA [Eneriner] (puzzle: Exclusion 3)
- apparent KD of MS2 coat protein [3]: 70.6 nM
- apparent KD of MS2 coat protein [2]: 35.9 nM
- apparent KD of MS2 coat protein [4]: 32.1 nM
